The source of these data is paper PMC4299599, “Quantification of cytosolic interactions identifies Ede1 oligomers as key organizers of endocytosis” (Molecular Systems Biology, 2014).

In one assay the target is T1, Sla2 (S. cerevisiae, UniProt P33338 1-968).
T1 construct: Sla2, S. cerevisiae; also called Sla2-3myeGFP; Sla2-3mCherry; source: chromosomally tagged at the endogenous locus, in the cytoplasm of living S. cerevisiae cells
T1 sequence (looked up): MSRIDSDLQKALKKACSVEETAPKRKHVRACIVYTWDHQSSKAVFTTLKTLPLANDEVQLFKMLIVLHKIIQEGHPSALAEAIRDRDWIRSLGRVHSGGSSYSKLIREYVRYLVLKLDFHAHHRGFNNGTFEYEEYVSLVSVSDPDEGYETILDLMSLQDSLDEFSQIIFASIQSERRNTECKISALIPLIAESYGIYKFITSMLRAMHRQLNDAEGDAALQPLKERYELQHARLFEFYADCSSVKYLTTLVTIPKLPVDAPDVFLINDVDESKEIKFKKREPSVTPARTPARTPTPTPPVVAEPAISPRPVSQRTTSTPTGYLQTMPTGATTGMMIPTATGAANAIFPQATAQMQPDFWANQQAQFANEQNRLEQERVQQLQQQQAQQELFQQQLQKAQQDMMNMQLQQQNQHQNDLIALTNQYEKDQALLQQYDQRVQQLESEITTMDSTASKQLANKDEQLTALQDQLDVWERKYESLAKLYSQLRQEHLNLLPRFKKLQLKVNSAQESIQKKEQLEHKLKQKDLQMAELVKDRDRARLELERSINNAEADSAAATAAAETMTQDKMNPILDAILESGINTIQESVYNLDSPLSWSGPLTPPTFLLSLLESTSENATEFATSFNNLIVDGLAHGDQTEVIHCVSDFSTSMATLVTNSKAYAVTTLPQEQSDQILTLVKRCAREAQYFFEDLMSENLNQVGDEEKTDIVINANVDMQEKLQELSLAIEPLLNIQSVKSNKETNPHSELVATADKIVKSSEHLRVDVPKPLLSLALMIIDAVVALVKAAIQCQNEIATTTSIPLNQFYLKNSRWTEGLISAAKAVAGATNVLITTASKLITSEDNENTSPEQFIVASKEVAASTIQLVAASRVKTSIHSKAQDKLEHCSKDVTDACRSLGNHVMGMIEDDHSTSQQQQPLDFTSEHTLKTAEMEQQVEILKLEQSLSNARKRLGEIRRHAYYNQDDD
Put plainly: fluorescence cross-correlation spectroscopy (FCCS); in the cytoplasm of living yeast cells; first-named protein green (3myeGFP or 1myeGFP; eGFP for Don1), second red (3mCherry); self-interaction in diploid strains with one allele of each colour; apparent or effective KD (Kdeff) from single-cell measurements; only Kdeff values < 1000 nM are shown; values for self-interactions are upper limits. Particulars: partners not purified.

The next assay deals with T2, Pan1 (S. cerevisiae, UniProt P32521 1-1480).
T2 construct: Pan1, S. cerevisiae; also called Pan1-1myeGFP; Pan1-3mCherry; source: chromosomally tagged at the endogenous locus, in the cytoplasm of living S. cerevisiae cells
T2 sequence (looked up): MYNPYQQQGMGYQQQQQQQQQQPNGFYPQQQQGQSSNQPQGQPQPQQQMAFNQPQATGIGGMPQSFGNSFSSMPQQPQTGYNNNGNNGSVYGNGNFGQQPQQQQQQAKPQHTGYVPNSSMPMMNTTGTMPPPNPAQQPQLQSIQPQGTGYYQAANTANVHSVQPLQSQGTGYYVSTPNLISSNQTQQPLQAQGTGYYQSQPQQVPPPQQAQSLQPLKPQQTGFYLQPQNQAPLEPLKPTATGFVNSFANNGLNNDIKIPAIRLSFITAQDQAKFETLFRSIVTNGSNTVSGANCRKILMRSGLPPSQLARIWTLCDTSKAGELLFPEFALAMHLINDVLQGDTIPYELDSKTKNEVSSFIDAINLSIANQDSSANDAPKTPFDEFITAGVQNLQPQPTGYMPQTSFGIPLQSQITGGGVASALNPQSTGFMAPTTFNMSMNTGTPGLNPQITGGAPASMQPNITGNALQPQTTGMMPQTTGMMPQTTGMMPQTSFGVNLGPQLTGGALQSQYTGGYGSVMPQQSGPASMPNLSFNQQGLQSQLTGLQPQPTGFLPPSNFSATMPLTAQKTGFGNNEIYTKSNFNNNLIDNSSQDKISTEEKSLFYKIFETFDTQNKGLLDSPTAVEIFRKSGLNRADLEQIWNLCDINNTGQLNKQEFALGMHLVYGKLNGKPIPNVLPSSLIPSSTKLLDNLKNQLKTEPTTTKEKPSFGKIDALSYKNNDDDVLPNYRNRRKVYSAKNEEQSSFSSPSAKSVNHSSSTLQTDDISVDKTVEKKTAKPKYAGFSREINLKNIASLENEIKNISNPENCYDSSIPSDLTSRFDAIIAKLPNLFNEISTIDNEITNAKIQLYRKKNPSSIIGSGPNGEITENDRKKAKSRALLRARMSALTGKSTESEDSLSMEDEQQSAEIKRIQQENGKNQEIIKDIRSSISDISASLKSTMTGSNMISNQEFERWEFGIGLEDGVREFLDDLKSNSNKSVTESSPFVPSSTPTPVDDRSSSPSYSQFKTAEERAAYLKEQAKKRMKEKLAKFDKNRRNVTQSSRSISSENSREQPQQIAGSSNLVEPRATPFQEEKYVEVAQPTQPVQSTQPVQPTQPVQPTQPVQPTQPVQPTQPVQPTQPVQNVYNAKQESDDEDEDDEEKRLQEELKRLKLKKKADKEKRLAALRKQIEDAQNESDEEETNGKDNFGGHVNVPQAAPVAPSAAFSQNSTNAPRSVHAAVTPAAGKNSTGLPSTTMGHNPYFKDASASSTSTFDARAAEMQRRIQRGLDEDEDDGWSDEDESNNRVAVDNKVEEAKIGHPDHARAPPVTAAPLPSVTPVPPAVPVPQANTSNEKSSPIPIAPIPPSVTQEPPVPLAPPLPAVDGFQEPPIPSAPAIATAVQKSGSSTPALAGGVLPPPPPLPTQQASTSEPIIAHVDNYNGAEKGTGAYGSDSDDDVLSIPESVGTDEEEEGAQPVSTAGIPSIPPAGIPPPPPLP
The description is as above. The conditions noted are these: partners not purified.

B1: End3 (natural protein, S. cerevisiae, UniProt P39013 1-349, looked up)
chain: MPKLEQFEIKKYWQIFSGLKPIENKVNHDQVLPILYNSKLDSSVLNKIWFLADIDDDDNLDFEEFVICMRLIFDMVNKNISSVPDELPDWLIPGSKVNLIKERKKRKQIENADLPPKKEIKVDWYMSPDDLNQYEKIYNSCAKLTDGTITFNELSTKLSTKFFNISKTDLNKVWSLINPQNLPSIDRDPTFYFIHCLRQRNDLGAEIPASLPNSLAEVCNKKQLSYDLRSSQPPTKRKEEANEVDNLRDNGQNSSSDSSGSNVLSNEDSIKQKYASLTDDQVANMREQLEGLLNYKKSEKTQGGSKLSKRINIRSITDDLDNIEQQVEVLENYLNNKRHELQALQAEIN
notes: End3, S. cerevisiae; also called End3-3myeGFP; End3-3mCherry; source: chromosomally tagged at the endogenous locus, in the cytoplasm of living S. cerevisiae cells
With B1, the Kd with Sla2 amounted to 622 nM; with Pan1 it was 27 nM.
